{"source": "patent US20120058906A1", "about": "(published 2012)", "binders": {"B1": {"name": "Fab VH1-46_IGHD6-6*01_IGHJ1*01_S102A_S103P_S104F_H111Y & L6_IGKJ1*01 (Fab, V domains shown)", "VH": "QVQLVQSGAEVKKPGASVKVSCKASGYTFTSYYMHWVRQAPGQGLEWMGIINPSGGSTSYAQKFQGRVTMTRDTSTSTVYMELSSLRSEDTAVYYCAREEYAPFSAEYFQYWGQGTLVTVSS", "VL": "not shown", "notes": "Fab made in E. coli; The heavy chain also carries the CH1 with Flag and His tags of Plasmid A, and the light chain the kappa constant region of Plasmid C"}, "B2": {"name": "Fab VH1-46_IGHD6-6*01_IGHJ1*01_S102A_S103P_S104F & L6_IGKJ1*01_S28P (Fab, V domains shown)", "VH": "B1 VH with Y111H", "VL": "EIVLTQSPATLSLSPGERATLSCRASQPVSSYLAWYQQKPGQAPRLLIYDASNRATGIPARFSGSGSGTDFTLTISSLEPEDFAVYYCQQRSNWPPWTFGQGTKVEIKR", "notes": "Fab"}, "B3": {"name": "Fab VH1-46_IGHD3-10*01_IGHJ4*01 & B3_IGKJ1*01 (Fab, V domains shown)", "VH": "QVQLVQSGAEVKKPGASVKVSCKASGYTFTSYYMHWVRQAPGQGLEWMGIINPSGGSTSYAQKFQGRVTMTRDTSTSTVYMELSSLRSEDTAVYYCAREYYYGSGSYYNDYFDYWGQGTLVTVSS", "VL": "not shown", "notes": "also called IGHV1-46*01"}}, "key": {"[1]": {"target": "T1, rHuman EGF R/Fc Chimera, CF (R&D Systems Cat#344-ER) (human, UniProt P00533 25-645)", "T1 construct": "Bought Fc chimera; also called epidermal growth factor receptor; Fc part of the bought chimera not given", "experiment": "ECL (MSD Multi-Spot) binding, antigen spotted on plate; Fab 5 nM"}, "[2]": {"target": "T2, rHuman IGF-1 sR, CF (R&D Systems Cat#391-GR) (human, UniProt P08069 31-932)", "T2 construct": "Bought soluble receptor; also called insulin-like growth factor-1 soluble receptor; IGF-R1", "experiment": "ECL (MSD Multi-Spot) binding, antigen spotted on plate; Fab 5 nM"}, "[3]": {"target": "T3, rHuman Notch-1/Fc Chimera, CF (R&D Systems Cat#3647-TK) (human, UniProt P46531 19-526)", "T3 construct": "Bought Fc chimera; Fc part of the bought chimera not given", "experiment": "ECL (MSD Multi-Spot) binding, antigen spotted on plate; Fab 5 nM"}, "[4]": {"target": "T4, rHuman CD44/Fc Chimera, CF (R&D Systems Cat#3660-CD) (human, UniProt P16070 21-220)", "T4 construct": "Bought Fc chimera; Fc part of the bought chimera not given", "experiment": "ECL (MSD Multi-Spot) binding, antigen spotted on plate; Fab 5 nM"}, "[5]": {"target": "T5, rHuman P-Cadherin/Fc Chimera, CF (R&D Systems Cat#861-PC) (human, UniProt P22223 108-654)", "T5 construct": "Bought Fc chimera; Fc part of the bought chimera not given", "experiment": "ECL (MSD Multi-Spot) binding, antigen spotted on plate; Fab 5 nM"}, "[6]": {"target": "T6, Recombinant Human DLL4 (R&D Systems Cat#1506-D4/CF) (human, UniProt Q9NR61 27-524)", "T6 construct": "Bought recombinant protein; also called delta-like protein 4", "experiment": "ECL (MSD Multi-Spot) binding, antigen spotted on plate; Fab 5 nM"}, "[7]": {"target": "T7, rHuman ErbB2/Fc Chimera, CF (R&D Systems Cat#1129-ER) (human, UniProt P04626 23-652)", "T7 construct": "Bought Fc chimera; also called human epidermal growth factor 2 receptor; HER2/neu; Fc part of the bought chimera not given", "experiment": "ECL (MSD Multi-Spot) binding, antigen spotted on plate; Fab 5 nM"}, "[8]": {"target": "T8, rHuman Erythropoietin R/Fc Chimera, CF (R&D Systems Cat#963-ER) (human, UniProt P19235 25-250)", "T8 construct": "Bought Fc chimera; also called EPO R/Fc; erythropoietin receptor; Fc part of the bought chimera not given", "T8 sequence": "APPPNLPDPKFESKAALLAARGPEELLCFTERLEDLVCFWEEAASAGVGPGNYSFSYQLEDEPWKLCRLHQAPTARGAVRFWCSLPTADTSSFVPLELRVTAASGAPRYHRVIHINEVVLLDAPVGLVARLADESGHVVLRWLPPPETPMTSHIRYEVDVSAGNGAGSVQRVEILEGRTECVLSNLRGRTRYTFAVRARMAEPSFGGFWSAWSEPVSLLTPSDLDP", "experiment": "ECL (MSD Multi-Spot) binding, antigen spotted on plate; Fab 5 nM"}, "[9]": {"target": "T9, rHuman HGF R/c-MET/Fc Chimera, CF (R&D Systems Cat#358-MT/CF) (human, UniProt P08581 25-932)", "T9 construct": "Bought Fc chimera; also called HGF R/Fc; hepatocyte growth factor receptor; Fc part of the bought chimera not given", "experiment": "ECL (MSD Multi-Spot) binding, antigen spotted on plate; Fab 5 nM"}, "[10]": {"target": "T10, rHuman EGF R/Fc Chimera, CF (R&D Systems Cat#344-ER) (human, UniProt P00533 25-645)", "T10 construct": "Bought Fc chimera; also called ErbB-1; not shown: Fc of the bought chimera", "experiment": "ECL (MSD multi-spot), antigen on plate, Fab 50 nM"}, "[11]": {"target": "T11, rHuman ErbB2/Fc Chimera, CF (R&D Systems Cat#1129-ER) (human, UniProt P04626 23-652)", "T11 construct": "Bought Fc chimera; also called HER2/neu; not shown: Fc of the bought chimera", "experiment": "ECL (MSD multi-spot), antigen on plate, Fab 50 nM"}, "[12]": {"target": "T12, rHuman CD44/Fc Chimera, CF (R&D Systems Cat#3660-CD) (human, UniProt P16070 21-220)", "T12 construct": "Bought Fc chimera; not shown: Fc of the bought chimera", "experiment": "ECL (MSD multi-spot), antigen on plate, Fab 50 nM"}, "[13]": {"target": "T13, rHuman HGF R/c-MET/Fc Chimera, CF (R&D Systems Cat#358-MT/CF) (human, UniProt P08581 25-932)", "T13 construct": "Bought Fc chimera; also called HGF R/Fc; not shown: Fc of the bought chimera", "experiment": "ECL (MSD multi-spot), antigen on plate, Fab 50 nM"}, "[14]": {"target": "T14, rHuman P-Cadherin/Fc Chimera, CF (R&D Systems Cat#861-PC) (human, UniProt P22223 108-654)", "T14 construct": "Bought Fc chimera; also called CDH3; not shown: Fc of the bought chimera", "experiment": "ECL (MSD multi-spot), antigen on plate, Fab 50 nM"}, "[15]": {"target": "T15, rHuman Notch-1/Fc Chimera, CF (R&D Systems Cat#3647-TK) (human, UniProt P46531 19-526)", "T15 construct": "Bought Fc chimera; not shown: Fc of the bought chimera", "experiment": "ECL (MSD multi-spot), antigen on plate, Fab 50 nM"}, "[16]": {"target": "T16, rHuman ErbB2/Fc Chimera, CF (R&D Systems Cat#1129-ER) (human, UniProt P04626 23-652)", "T16 construct": "Bought reagent; also called HER2/neu; human epidermal growth factor 2 receptor; Fc part of the bought chimera not given", "experiment": "ECL (MSD multi-spot), antigen spotted on plate; Fab 1410 nM; blank spot 709"}, "[17]": {"target": "T17, rHuman Erythropoietin R/Fc Chimera, CF (R&D Systems Cat#963-ER) (human, UniProt P19235 25-250)", "T17 construct": "Bought reagent; also called EPO R/Fc; Epo R; Fc part of the bought chimera not given", "T17 sequence": "T8 sequence", "experiment": "ECL (MSD multi-spot), antigen spotted on plate; Fab 1410 nM; blank spot 709"}, "[18]": {"target": "T18, rHuman HGF R/c-MET/Fc Chimera, CF (R&D Systems Cat#358-MT/CF) (human, UniProt P08581 25-932)", "T18 construct": "Bought reagent; also called HGF R/Fc; hepatocyte growth factor receptor; Fc part of the bought chimera not given", "experiment": "ECL (MSD multi-spot), antigen spotted on plate; Fab 1410 nM; blank spot 709"}}, "note": "Changes are numbered by the printed parent chain.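 Note: blank spot per well as comparator with Hit at signal to blank ratio of 4 or more.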"}
{"binder": "B1", "values": [{"measurement": "ECL signal", "setting": "[1]", "value": 311}, {"measurement": "ECL signal", "setting": "[2]", "value": 320}, {"measurement": "ECL signal", "setting": "[3]", "value": 383}, {"measurement": "ECL signal", "setting": "[4]", "value": 413}, {"measurement": "ECL signal", "setting": "[5]", "value": 437}, {"measurement": "ECL signal", "setting": "[6]", "value": 84900}, {"measurement": "ECL signal", "setting": "[7]", "value": 315}, {"measurement": "ECL signal", "setting": "[8]", "value": 377}, {"measurement": "ECL signal", "setting": "[9]", "value": 323}]}
{"binder": "B2", "values": [{"measurement": "ECL signal", "setting": "[10]", "value": 328, "unit": "ECL signal"}, {"measurement": "ECL signal", "setting": "[11]", "value": 384, "unit": "ECL signal"}, {"measurement": "ECL signal", "setting": "[12]", "value": 340, "unit": "ECL signal"}, {"measurement": "ECL signal", "setting": "[13]", "value": 183, "unit": "ECL signal"}, {"measurement": "ECL signal", "setting": "[14]", "value": 431, "unit": "ECL signal"}, {"measurement": "ECL signal", "setting": "[15]", "value": 477, "unit": "ECL signal"}]}
{"binder": "B3", "values": [{"measurement": "ECL signal", "setting": "[16]", "value": 932}, {"measurement": "ECL signal", "setting": "[17]", "value": 4310}, {"measurement": "ECL signal", "setting": "[18]", "value": 903}]}
